From paper PMC10427004, “Restoration of energy homeostasis under oxidative stress: Duo synergistic AMPK pathways regulating arginine kinases” (PLOS Genetics, 2023)

What was measured:
[1] = system: Nc1ncnc2c1ncn2[C@@H]1O[C@H](COP(=O)(O)OP(=O)(O)OP(=O)(O)O)[C@@H](O)[C@H]1O; test: pyruvate kinase / lactate dehydrogenase coupled assay, A340, Lineweaver-Burk; format: biochemical, Tribolium castaneum; settings: 5 mM L-arginine, 20 mM MgCl2, pH 7.5, 30 °C
[2] = system: Nc1ncnc2c1ncn2[C@@H]1O[C@H](COP(=O)(O)OP(=O)(O)O)[C@@H](O)[C@H]1O; test: hexokinase / glucose-6-phosphate dehydrogenase coupled assay, A340, Lineweaver-Burk; format: biochemical, Tribolium castaneum; settings: 5 mM phospho-L-arginine, 20 mM MgCl2, pH 7.5, 30 °C

Substance	Km [1]	Km [2]
6×His-TcAK1 (Tribolium castaneum; S129D)	4.5 mM	19.4 mM
6×His-TcAK1 (Tribolium castaneum; T247D)	13.0 mM	10.6 mM
